Sequences and labels used below:
B1: LINE1-full (parent)
chain: UACGUAGGUGGUUUUCCCCUGAUAGUGCUAAGGGGGCCUGGAAGUUUGGACUGGGCAGAGCUCAACACAGCGUGGCAAAGUGGCUGUGGCUAGACUGCCUCUCUGGAUUCCUCGUCACUCAGCAGGGCAUCUCUGAGAGAAAUGCC

Variants of B1 are the subject of the data set. Description: self-cleavage, relative activity (ratio to wild type); higher = more cleavage; in vitro, sequencing; the parent is a self-cleaving ribozyme.
Turning to A79C U119C, the self-cleavage is 1.82. Under C76U A140G stands 2.36; under C76U A140U, 2.07.

Regarding C76U U143C, the self-cleavage is 2.01. Consider A77U A141C, for which the self-cleavage was determined as 1.32.

As for A77U A141G, the self-cleavage stood at 1.4. As to A77U A141U, the self-cleavage was 1.07. For A79G A129G, the self-cleavage was found to be 1.62. In the case of C76U A117C, the self-cleavage was 2.66.

Consider C76U A117G, for which the self-cleavage came to 2.24. As for A78G C145U, the self-cleavage came to 1.28. A78C U100C: the self-cleavage was found to be 2.41.

Turning to C76G C84A, the self-cleavage is 0.14. Under A78U U85A stands 0.11; under U73G U102A, 1.22. Turning to U73C U100A, the self-cleavage came to 1.81. As for U73C U100C, the self-cleavage was determined as 1.99. Take C76G A141G: the self-cleavage worked out at 2.47. Regarding A78G U104A, the self-cleavage stood at 1.25. Consider U73G U96C, for which the self-cleavage stood at 0. As for U73C G106A, the figure is 1.7; as for U73C U115C, 1.63. For the variant C76U G105C, the self-cleavage amounted to 2.51.

Turning to U73G U143C, the self-cleavage stood at 2.02.

For U73G A140G, the self-cleavage was found to be 1.21. As for A78U C110U, the self-cleavage was 1.28. Turning to U73G U112G, the self-cleavage was determined as 0.

Turning to U73G U134C, the self-cleavage stood at 1.57.

In the case of G75A G82U, the self-cleavage was 1.07. In the case of A78G U115A, the self-cleavage was found to be 1.12. On to A78C A124G, for which the self-cleavage amounted to 0.94.

On to G75C A142U, for which the self-cleavage was 0.66. On to U73C G97A, for which the self-cleavage is 0.41. For A78G A142G, the self-cleavage is 1.21. Consider A77G U85A, for which the self-cleavage was 0.06. Consider A77G U85G, for which the self-cleavage worked out at 0.2. As for A77G U85C, the figure is 0.25. On to A77U A117G, for which the self-cleavage is 1.6. As for A77U A117U, the self-cleavage was determined as 1.21. As for A77U A117C, the figure is 1.76; as for A78U U119A, 1.82; as for A77C U130C, 1.89. A77G A78G: the self-cleavage came out at 1.68. Regarding G75A A107G, the self-cleavage came to 1.66. As to A77U U96A, the self-cleavage is 0.06.

For G74A G89A, the self-cleavage came out at 0.03. Under U73C U87A stands 0.31; under U73C U87C, 0.2; under G74A U130C, 0.87.

As for A78G U134C, the self-cleavage was 1.49. Turning to A77G G137A, the self-cleavage came out at 2.66.

With A77C A94G, the self-cleavage was 0. As for C76U C113A, the figure is 2.15; as for C76A A124G, 0.92. As for C76U U108C, the figure is 2.53; as for A77U U112C, 1.29; as for U73C G114A, 1.54. In the case of G75A U87G, the self-cleavage was determined as 0.18. A78U U91A: the self-cleavage was 0.85. Under A78U U91C stands 1.13; under A78G A124U, 1.45. Take A77G G83U: the self-cleavage was 1.28.

In the case of A78C A141G, the self-cleavage is 1.74.

With A77G U104G, the self-cleavage is 1.87.

Consider A78C U119C, for which the self-cleavage was determined as 2.95.

A78G U112C: the self-cleavage is 1.24. As for A78G U112A, the figure is 0.7; as for A77G C145U, 2.12; as for A77G C145A, 2.43. Take G75U U109C: the self-cleavage was 0.7.

As for A77G G139A, the self-cleavage stood at 1.52.

For A77C A136G, the self-cleavage came out at 1.06. For U73G A142U, the self-cleavage was found to be 0.61.

Take A77C G114A: the self-cleavage amounted to 0.63.

For A78G G97A, the self-cleavage turned out to be 0.11. Under A78G G97U stands 0.03; under U73C U112G, 2.63; under A78G A129G, 1.65. Take A78G A129C: the self-cleavage was found to be 1.96. Consider A78U U134A, for which the self-cleavage came to 2.08. Turning to A78U U134C, the self-cleavage stood at 2.05.

As to G74A U134C, the self-cleavage is 1.1.

As for A77G A138U, the self-cleavage was determined as 2.56. As to A78G G86A, the self-cleavage came out at 0.05. Under A78G G86U stands 0.08; under A77U U143A, 1.18; under A78U C99U, 1.07. As for G74U A141G, the figure is 1.68. As to A77U U85A, the self-cleavage came out at 0.07. Under A77G U109A stands 1.75; under A77G U109C, 1.51. On to A78U U112C, for which the self-cleavage was 1.91. Take A77G U100C: the self-cleavage was 2.88. Regarding G74A U112C, the self-cleavage turned out to be 0.66. As to U73C U134A, the self-cleavage amounted to 1.54.

As to U73C U134C, the self-cleavage stood at 1.87. Take A78U U100C: the self-cleavage came out at 2.81. A79G A121G: the self-cleavage is 1.21.

Consider C76U A129U, for which the self-cleavage turned out to be 1.57.

Turning to A77C A142G, the self-cleavage is 1.34.

Take A77U A124G: the self-cleavage was found to be 0.79.

Take A78G U119C: the self-cleavage is 1.55. A78G U119A: the self-cleavage was 1.33. Under A77G U87A stands 0.09. For A77G U87C, the self-cleavage is 0.42.

With U73C U85G, the self-cleavage was 0.21. U73C U85C: the self-cleavage came to 0.08.

A77G U132C: the self-cleavage amounted to 2.73. Regarding G74A U109C, the self-cleavage is 0.7. Turning to A77G U119G, the self-cleavage worked out at 1.39. As for A77G U119A, the figure is 2.04; as for C76G U102C, 2.25; as for A77U G93A, 0.02.

For G75A G105U, the self-cleavage stood at 0.67. With A77G A117U, the self-cleavage was determined as 2.58.

U73C G125U: the self-cleavage worked out at 2.15.

In the case of A78U G114A, the self-cleavage was 1.75. For U73G A107U, the self-cleavage came out at 1.59. Turning to G74A U81C, the self-cleavage worked out at 0.78. With U73C U102C, the self-cleavage worked out at 1.11. As for G74A U102C, the self-cleavage came out at 1.08. With A78G G89A, the self-cleavage was 0.04. Take C76U A94G: the self-cleavage worked out at 0.18. Turning to A78U U81C, the self-cleavage was 1.6.

For A77U U81C, the self-cleavage is 1.47.

Regarding A78U U130A, the self-cleavage stood at 2.96. Regarding A77G U91C, the self-cleavage came to 0.

As to U73C G105A, the self-cleavage is 2.03. For U73C G105U, the self-cleavage was found to be 1.32. On to A78G A107U, for which the self-cleavage was 1.26.

For A78G A107G, the self-cleavage is 1.26. As for A78G, the self-cleavage worked out at 1.23. Regarding A78U, the self-cleavage worked out at 1.92. In the case of A78C, the self-cleavage turned out to be 2.41. Under G75A A79G stands 0.83. As to G75A A141G, the self-cleavage stood at 1.16.

Consider A78G C95U, for which the self-cleavage stood at 0.1. Turning to A78G G122A, the self-cleavage was found to be 0.65. Consider G75C A138G, for which the self-cleavage stood at 1.01.

As for C76U C99U, the self-cleavage came out at 0.99. Take C76A U143A: the self-cleavage turned out to be 1.65. With G74A A121U, the self-cleavage was determined as 1.07. As for U73C U109C, the figure is 0.31. In the case of A77U C113A, the self-cleavage is 0.92.

Turning to A78U U108C, the self-cleavage was found to be 2.87. For the variant A77U G114A, the self-cleavage amounted to 1.65. As for G75U A78U, the figure is 1.49. As for A77G U134C, the figure is 2.54. Consider G75C U109C, for which the self-cleavage turned out to be 0.62. In the case of A77U C84U, the self-cleavage was determined as 0.08. For A77G U96G, the self-cleavage was 0.16. With A77G U96C, the self-cleavage was 0.18. On to U73G A141G, for which the self-cleavage is 1.81. Turning to G75A U143A, the self-cleavage was 1.53. On to A78G A136U, for which the self-cleavage turned out to be 1.79. Regarding A78G A136G, the self-cleavage was 1.45. On to A77G U112A, for which the self-cleavage turned out to be 2.32. As for A77G U112C, the self-cleavage stood at 2.18. As for G74U, the figure is 1.4; as for G74C, 1.6. Consider G74A, for which the self-cleavage stood at 0.95.

For the variant A78G U143A, the self-cleavage was 1.11. A78G U143C: the self-cleavage came out at 1.18.

As for A77U G83A, the self-cleavage was found to be 0.74. For the variant A79C U96C, the self-cleavage stood at 0.11. Under G74A U104A stands 0.75; under A78G U91A, 0.38.
